# Experimental data as given in article doi:10.1101/2024.04.06.588386, “Structural plasticity of 2A proteins in the Parechovirus family” (bioRxiv, 2024).
# Target: the molecule itself
# Experiment: SEC-SAXS; Superdex S75 Increase 5/150; 20 mM Hepes-NaOH pH 7.4, 150 mM NaCl, 4 mM TCEP, 1% v/v glycerol; molecular weight estimates and fit of crystallographic dimers (CRYSOL, NMA)
protein,measurement,value
"HPeV1-2A^FL (full-length 2A^H/NC protein of human parechovirus 1) (natural protein, also called full-length HPeV1-2A) SPYGQQPQNRMMKLAYLDRGFYKHYGIIVGDHVYQLDSDDIFKTALTGKAKFTKTKLTSDWVIEEECELDYFRIKYLESAVDSEHIFSVDKNCETIAKDIFGTHTLSQHQAIGLVGTILLTAGLMSTIKTPVNAVTIKEFFNHAIDGDEQ",stoichiometry N,2
